One molecule from patent US20230174604A1 (Innovent, published 2023) can be followed below.

The target in this assay is T1, IL-2Rα-Biotin (biotin-labeled human IL-2Rα, UniProt P01589 aa22-217, with C-terminal avi tag and His6 tag) (human, UniProt P01589 22-217, biotin on the avi tag (enzymatic labeling with BirA)).
T1 construct: Expressed in HEK293-F, monomer peak collected; loaded on SA sensor or used to stain yeast; also called CD25; IL-2Rα receptor
T1 sequence: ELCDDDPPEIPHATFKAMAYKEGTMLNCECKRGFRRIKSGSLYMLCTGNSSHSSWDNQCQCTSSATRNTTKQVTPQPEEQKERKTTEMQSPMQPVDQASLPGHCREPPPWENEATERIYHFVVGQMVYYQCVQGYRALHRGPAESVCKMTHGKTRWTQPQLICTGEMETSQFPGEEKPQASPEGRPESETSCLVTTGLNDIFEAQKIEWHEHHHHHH
The assay can be described thus: flow cytometry, yeast-displayed IL-2 stained with IL-2Rα-Biotin. The protocol:
Yeast cells comprising a single mutant sequence after sequencing were induced by shaking at 20° C. for 24 h to display IL-2^mutant, and stained together with their receptors IL-2Rα-Biotin and IL-2Rβ IH-Biotin, respectively. The specific steps were as follows: [0191] […] 1. 1×10⁶ cells from each sample were centrifuged to discard the supernatant, and washed with FACS buffer once for later use; [0193] 2. the cells were added to 100 μL of FACS buffer containing 50 nM IL-2Rα-Biotin and Anti Flag antibody, and incubated at room temperature for 30 min; [0194] 3. the mixture was centrifuged at 3000 rpm at 4° C. for 3 min, and washed twice with pre-cooled FACS buffer; [0195] 4. […] 5. after being washed twice with pre-cooled FACS buffer, the cells were resuspended in 100 μL of buffer, and the binding level of IL-2^mutant to IL-2Rα was assayed by a flow cytometer (BD, ACCURI C6). [0197] II. […] 1. 1×10⁶ cells from each sample were centrifuged to discard the supernatant, and washed with FACS buffer once for later use; [0199] 2. the cells were added to 100 μL of FACS buffer containing IL-2Rβ IH-Biotin (30 nM-100 nM) and Anti Flag antibody, and incubated at room temperature for 30 min; [0200] 3. following steps 3-5 described above, the binding level of IL-2′ to IL-2Rβ was assayed.
In general terms: A flow cytometer gives signals particle by particle.

B1: IL-2^3X displayed on the surface of yeasts (ligand)
chain: APTSSSTKKTQLQLEHLLLDLQMILNGINNYKNPKLTDMLTFEFYMPKKATELKHLQCLERELKPLEEVLNLAQSKNFHLRPRDLISNINVIVLELKGSETTFMCEYADETATIVEFLNRWITFSQSIISTLT
notes: control in the flow cytometry staining
Turning to B1, the binding result is “no binding (tested: 50 nM IL-2Rα-Biotin)”.
